{"source": "paper PMC12802937", "about": "(Nucleic Acids Research, 2026)", "binders": {"B1": {"name": "Lge1-CT (Lge1 residues 261–332), intein-chitin binding domain (CBD) tag construct (domain or fragment, budding yeast, UniProt Q02796 261-332, looked up)", "chain": "KNVKKTNNTESECEKAREVFKESDSIDSALEELNLKINSNELELRLLNNQCDKHALNIQLTQEKLDSLLLMQ", "notes": "Lge1, budding yeast, residues 261-332; residues 268–331 resolved in the electron density; the intein-CBD tag is named on the protein in the pull-down; also called intein-CBD-fused Lge1-CT; intein-CBD-tagged Lge1-CT; source: E. coli BL21 Rosetta (DE3): cleared cell extract on chitin resin (pull-down); purified (chitin, heparin, gel filtration) for ITC and SPR; co-purified with Bre1-LR for the …"}}, "assay_in_all_cases": "ITC; Lge1-CT (50–60 μM) injected into Bre1-LR (15 μM); 25°C, 20 mM TRIS (pH 7.5), 200 mM sodium chloride", "settings_in_all_cases": "both partners purified", "key": {"Bre1-LR K379A": {"biological_target": "T1, Bre1-LR K379A (budding yeast, UniProt Q07457 227-700, K379A)", "T1 construct": "source: E. coli BL21 Rosetta (DE3), purified (Ni-NTA, heparin, gel filtration)", "T1 sequence (looked up)": "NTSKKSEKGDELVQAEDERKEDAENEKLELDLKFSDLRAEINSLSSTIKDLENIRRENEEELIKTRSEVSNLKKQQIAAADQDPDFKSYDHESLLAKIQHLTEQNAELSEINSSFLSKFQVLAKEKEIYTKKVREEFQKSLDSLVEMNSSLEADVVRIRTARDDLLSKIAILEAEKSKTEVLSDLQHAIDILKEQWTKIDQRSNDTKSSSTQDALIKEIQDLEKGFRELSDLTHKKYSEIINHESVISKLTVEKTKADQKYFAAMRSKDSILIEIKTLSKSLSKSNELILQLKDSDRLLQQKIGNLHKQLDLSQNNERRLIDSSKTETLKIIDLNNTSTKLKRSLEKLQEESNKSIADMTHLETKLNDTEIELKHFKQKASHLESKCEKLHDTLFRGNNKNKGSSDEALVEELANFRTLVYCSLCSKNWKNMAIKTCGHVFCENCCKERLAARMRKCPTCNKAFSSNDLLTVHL"}, "Bre1-LR K379E": {"biological_target": "T2, Bre1-LR K379E (budding yeast, UniProt Q07457 227-700, K379E)", "T2 construct": "source: E. coli BL21 Rosetta (DE3), purified (Ni-NTA, heparin, gel filtration)", "T2 sequence (looked up)": "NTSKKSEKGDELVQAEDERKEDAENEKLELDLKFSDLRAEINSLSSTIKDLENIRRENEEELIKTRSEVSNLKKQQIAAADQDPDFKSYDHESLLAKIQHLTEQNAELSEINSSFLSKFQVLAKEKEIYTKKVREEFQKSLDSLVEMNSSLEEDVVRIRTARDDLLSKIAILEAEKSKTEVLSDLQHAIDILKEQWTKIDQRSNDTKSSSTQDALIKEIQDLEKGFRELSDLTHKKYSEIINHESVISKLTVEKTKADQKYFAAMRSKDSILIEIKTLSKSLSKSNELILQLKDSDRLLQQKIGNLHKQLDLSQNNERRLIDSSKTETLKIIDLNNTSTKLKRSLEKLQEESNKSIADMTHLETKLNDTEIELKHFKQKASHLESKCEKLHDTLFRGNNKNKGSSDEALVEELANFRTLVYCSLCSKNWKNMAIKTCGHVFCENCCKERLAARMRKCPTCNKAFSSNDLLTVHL"}, "Bre1-LR V382N": {"biological_target": "T3, Bre1-LR V382N (budding yeast, UniProt Q07457 227-700, V382N)", "T3 construct": "source: E. coli BL21 Rosetta (DE3), purified (Ni-NTA, heparin, gel filtration)", "T3 sequence (looked up)": "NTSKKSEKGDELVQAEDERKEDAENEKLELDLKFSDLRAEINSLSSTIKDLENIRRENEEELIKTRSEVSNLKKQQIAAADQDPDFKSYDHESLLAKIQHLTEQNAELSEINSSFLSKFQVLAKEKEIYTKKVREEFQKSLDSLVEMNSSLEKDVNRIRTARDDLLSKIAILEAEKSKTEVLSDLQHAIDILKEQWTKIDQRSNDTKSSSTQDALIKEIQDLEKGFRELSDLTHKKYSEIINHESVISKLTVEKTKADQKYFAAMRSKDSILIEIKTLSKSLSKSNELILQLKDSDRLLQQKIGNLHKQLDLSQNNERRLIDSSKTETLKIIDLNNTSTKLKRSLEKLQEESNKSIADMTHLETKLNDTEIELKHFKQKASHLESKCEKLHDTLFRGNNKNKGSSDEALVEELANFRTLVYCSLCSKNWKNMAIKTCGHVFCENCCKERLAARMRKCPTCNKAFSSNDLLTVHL"}, "Bre1-LR E378K/E500K": {"biological_target": "T4, Bre1-LR E378K/E500K (budding yeast, UniProt Q07457 227-700, E378K | E500K)", "T4 construct": "source: E. coli BL21 Rosetta (DE3), purified (Ni-NTA, heparin, gel filtration)", "T4 sequence (looked up)": "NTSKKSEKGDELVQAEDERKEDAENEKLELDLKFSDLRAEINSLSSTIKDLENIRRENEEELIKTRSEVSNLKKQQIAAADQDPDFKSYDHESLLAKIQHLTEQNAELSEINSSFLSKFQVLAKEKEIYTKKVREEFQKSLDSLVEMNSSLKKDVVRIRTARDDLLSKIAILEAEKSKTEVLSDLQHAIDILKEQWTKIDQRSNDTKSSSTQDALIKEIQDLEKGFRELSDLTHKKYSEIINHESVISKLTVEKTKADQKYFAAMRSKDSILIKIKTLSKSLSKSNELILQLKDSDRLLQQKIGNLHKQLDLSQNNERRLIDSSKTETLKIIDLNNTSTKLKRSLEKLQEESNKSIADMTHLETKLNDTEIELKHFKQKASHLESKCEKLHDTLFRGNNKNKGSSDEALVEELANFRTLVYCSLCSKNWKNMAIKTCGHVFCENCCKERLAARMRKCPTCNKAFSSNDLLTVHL"}}}
{"binder": "B1", "values": [{"measurement": "Kd", "setting": "Bre1-LR K379A", "result": "82.3 ± 20", "unit": "nM"}, {"measurement": "dH", "setting": "Bre1-LR K379A", "result": "-44.1 ± 1.8", "unit": "kcal/mol"}, {"measurement": "stoichiometry N", "setting": "Bre1-LR K379A", "result": "0.415 ± 0.007"}, {"measurement": "Kd", "setting": "Bre1-LR K379E", "result": "58.1 ± 19", "unit": "nM"}, {"measurement": "dH", "setting": "Bre1-LR K379E", "result": "-37.7 ± 1.6", "unit": "kcal/mol"}, {"measurement": "stoichiometry N", "setting": "Bre1-LR K379E", "result": "0.428 ± 0.008"}, {"measurement": "Kd", "setting": "Bre1-LR V382N", "result": "61.2 ± 14.4", "unit": "nM"}, {"measurement": "dH", "setting": "Bre1-LR V382N", "result": "-53.1 ± 1.7", "unit": "kcal/mol"}, {"measurement": "stoichiometry N", "setting": "Bre1-LR V382N", "result": "0.378 ± 0.005"}, {"measurement": "Kd", "setting": "Bre1-LR E378K/E500K", "result": "98 ± 31.2", "unit": "nM"}, {"measurement": "dH", "setting": "Bre1-LR E378K/E500K", "result": "-40.7 ± 1.9", "unit": "kcal/mol"}, {"measurement": "stoichiometry N", "setting": "Bre1-LR E378K/E500K", "result": "0.256 ± 0.007"}]}
